B1: TPR t1 (parent)
chain: GACCAAUCUGCCCUCAGAGCUCGAGAACAUCUUCGGAUGCAGAGGAGGCAGGCUUCGGUGGCGCGAUAGCGCCAACGUCCUCAACCUCCAAUGCAUCCCACCACAUGAUGAUGCCUGAAGAGCCUUGGUUUUUUG

Variants of: B1
Assay: polymerase ribozyme fitness, log enrichment relative to wild type (log ratio); higher = more active; in vitro selection for triplet polymerase activity
How it was run: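 Input and output libraries were sequenced on Illumina after a single in vitro selection round, run in triplicate on PCR-built, transcribed mutant libraries of each subunit of a heterodimeric triplet polymerase ribozyme. Selection annealed libraries to a biotinylated primer, the partner subunit and triplets, incubated them frozen at −7 °C, then gel-excised extended constructs for streptavidin-bead capture and RT-PCR. Genotypes with ≥10 input reads and ≥1 read per output were kept. Fitness is the logarithm, taken in base 2, of genotype enrichment divided by wild-type enrichment, using inverse-variance-weighted replicate averages.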

Variant	polymerase ribozyme fitness (log ratio)
C40A A41U A50C C62A	-5.7
U96C G110A	-0.613
C12A G61U	-0.581
U92G G117C U129C U133C	-4.13
A6U A46U U116A	-4.28
A103C G120A	-3.52
C70U A91U G113A	-2.99
G48U C62A G127C	-3.44
C15G G36A A100C C124G	-3.29
C13U G47U G117U	-2.08
C97U U112G U116A U129C	-4.3
U32C C86U C101U C114A	-4.6
A37G A43U G47U C101G	-4.64
C3U C104A	-2.21
A2U G10A	-2.85
U7C U131A	0.00611
U7C C8G U21C C62G U78A	-1.85
C79G C114G	-5.17
C34U C104U U112C	-2.1
A29G G61A	-0.852
C22A A84U	-5.54
A27G C62A	-2.85
C31U U38A A68C C72U C76G U112A G117C	-6.6
U78G A111U	-3.77

Variant	polymerase ribozyme fitness (log ratio)
C20U G44A C64U	-2.89
A5U C15U G48A C70A	-3.43
A6C A27C G110C U130C	-6.2
C82U C85A C86U C97A C124G	-5.65
C22A C115U	-6.25
G45C A68G U112A A118U	-4.16
C3A C11A A16U C49A G117A	-4.16
A6G A29C G45U C102A C124U	-5.32
A6C A105C U130C	-1.78
U30G C79G U106A	-3.54
G35A A100G	-6.42
G10A C22A C79A G120U C123G	-5.58
C34A U59A	-2.58
G10U C115A	-0.281
G45C G110C	-5.03
C49G C82U G93U G117U	-4.66
C70G C85A G93A C99G G110U	-6.29
C85U G93A G120U	-0.509
C85A G113U	-3.47
C72U U78C C82G C101A A121C	-0.0659
C3U C12U C72U C85A	-1.01
G44U A66U	-2.13
G44A G51A C76A U92A G117C	-6.37
G42A G113U	-3

Variant	polymerase ribozyme fitness (log ratio)
U9A G117C	-1.79
G17A G113U	-3.81
U33G G71A G117U	-8.01
C3U C12A C13A C49U C72G C99U U116C	-6.31
C53A U96A U106A G120A	0.0353
C56G G110U A111G	-2.16
G42C G71U G117C	-4.87
G52C U81A U130A	-2.3
G77U G120C	0.43
C31U U87C U96A G120U	-5.92
U38A C124A	1.2
G35U G61A C85A C114G U131G	-6.32
C8G U21A G57C A108G U133C	-5.29
U33C U133G	-5.56
A6G U9C C13G C89U A90U C94U A105U A121G	-2.84
G47A G60A	1.12
A5C C11G A41C G71C C104U	-2.45
U87A G113C U130A	-2.96
A5U C8U A46G G60U A66U	-1.11
C64A C86U A103U C114A	-6.49
A6U A37G C56U	0.28
G44C G60A	-1.01
C72A C124U	1.25
A2U G45A G69U C124A	-0.409

Variant	polymerase ribozyme fitness (log ratio)
U7C G69A C88A	-2.92
U9G G93A G128A U129G	-1.96
A29G C104U U106G	-1.09
C12G G42A G57C C72U U125C	-4.98
A111U A121U U129A G135C	-2.04
C11G C12A G36C C72U C73U	-1.07
C49G G58C C79A	-5.19
C34G C94U	-6.86
G110U G122U	-2.07
U21G A46C C86U	-2.16
C8U C13G G69A C72A	-4.71
C13U A16C A84U U129A	-3.48
G10U C11A C13G G19A G57U A90G A91U	-2.55
C20G U109G	-3.38
U32C A50G A118U U131G	-1.27
C8G C85A C124U	1.24
C53U C56G U116A G120C U133G	-1.3
G47A G120A	-0.422
G52C U131A	-0.555
C70G	-2.49
U9C G63C U96G C97A C123A	-3.72
A41G C104A G113C	-3.19
G71C C88U	-2.61
C89G C124U	0.383

Variant	polymerase ribozyme fitness (log ratio)
G63A C101U	-0.216
U9C C13A A50G C72U A84U C89A C98U C102A	-6.4
A6G C34U G60U C72U U116A C124A	-4.04
C11A G47U C56A C86A U106G	-3.84
C56U G71A C72G G77C C82G A111U	-6.46
G35U C101U	-6.26
U55A U59C G135U	-1.36
C3U A27U G61A	-3.78
A5C G60A C89G G93A A111G	-4.73
C62A A118U	-1.56
A46U U87A	-0.324
C72A U81A C86U U106A G128A U130A	-4.98
A18C A83G A105G C115U	-3.42
U7A G60A U81A	-0.716
A41U A43U U54G G93A U106G	-3.16
C8G G60C	0.0647
U30C G36C C70G U78C A84C U112G	-6.17
C3G C62U G120C	-0.751
A2G C89G G110U	-4.03
A50C G127A	-0.787
A5U C8G C88U C97U G113C	-1.99
C53U C123A	1.2
C73G G117A	-0.876
C53U A84U U126C	-1.72

Variant	polymerase ribozyme fitness (log ratio)
A41U A46U G61A	-1.65
A5U C72U G113U G120U U130C	-4.48
A43C G44U A111G	-1.62
C8U A18U A37C G45U C53A G113A C124U	-2.69
A27C G45C	-4.29
C70U A74G	-1.83
C3A C15A C53U G63C	-3.45
A6U A95C	-0.905
G36U G48U U132A G135C	-1.44
A84G G117U	-3.75
U9G C12G G60U	0.216
C20G U21A U112A	-0.639
C89G G120A	-1.58
G60U C98G	-5.35
C12U A37C G45A G63U	-1.7
C11G C15A A95U U130A	-2.76
A18U C49G C88A C101A C123U U126A	-4.99
G52C C72U C73G	-1.01
G110C G122C	-5.25
G127U	-0.639
C8U C11U G19A C73A A74C C86A	-3.7
G110U A118G	-1.01
A50C A100C	-1.68
C11U C40U	-0.173

Variant	polymerase ribozyme fitness (log ratio)
A16G G77A A111G G113A A118G	-3.63
A37C C72U	0.162
C13U U21C	0.405
G17U C49A C56A	-4.3
G60A C79U C98G C99A C123G	-2.67
C15U U133A	-1.79
C11G C34A G122A C123A	-1.19
C20G G61A	-3.66
A18U G35U G71A A108G C115U	-6.98
U21A A43U	-1.83
G77A C114G U130C	-2.63
C86U C104U	-0.296
C20A G117U U133A	-4.77
G52U A111C	-2.18
U38G A46C C101U	-2.55
A43U A46U C56A	-2.93
G51A G57U	-1.5
A27C C94A	-3.32
A43U A74U C104U C115U	-3.23
U112G G128U	-2.4
C49A C70A G120C U126C U131G	-1.57
A29U G44U	-3.06
A29U G42U G52A U109G	-2.63

From the RNAGym collection of RNA variant scans (doi:10.1073/pnas.2313332121)
